Changes are numbered by the printed parent chain.
How the values were obtained:
[1] = molecular target: T1, aI2-encoded protein P714T P714T (Saccharomyces cerevisiae) (UniProt P03876); experiment: cleavage_in_vitro; details: relative to Example 1 RNP
T1 sequence: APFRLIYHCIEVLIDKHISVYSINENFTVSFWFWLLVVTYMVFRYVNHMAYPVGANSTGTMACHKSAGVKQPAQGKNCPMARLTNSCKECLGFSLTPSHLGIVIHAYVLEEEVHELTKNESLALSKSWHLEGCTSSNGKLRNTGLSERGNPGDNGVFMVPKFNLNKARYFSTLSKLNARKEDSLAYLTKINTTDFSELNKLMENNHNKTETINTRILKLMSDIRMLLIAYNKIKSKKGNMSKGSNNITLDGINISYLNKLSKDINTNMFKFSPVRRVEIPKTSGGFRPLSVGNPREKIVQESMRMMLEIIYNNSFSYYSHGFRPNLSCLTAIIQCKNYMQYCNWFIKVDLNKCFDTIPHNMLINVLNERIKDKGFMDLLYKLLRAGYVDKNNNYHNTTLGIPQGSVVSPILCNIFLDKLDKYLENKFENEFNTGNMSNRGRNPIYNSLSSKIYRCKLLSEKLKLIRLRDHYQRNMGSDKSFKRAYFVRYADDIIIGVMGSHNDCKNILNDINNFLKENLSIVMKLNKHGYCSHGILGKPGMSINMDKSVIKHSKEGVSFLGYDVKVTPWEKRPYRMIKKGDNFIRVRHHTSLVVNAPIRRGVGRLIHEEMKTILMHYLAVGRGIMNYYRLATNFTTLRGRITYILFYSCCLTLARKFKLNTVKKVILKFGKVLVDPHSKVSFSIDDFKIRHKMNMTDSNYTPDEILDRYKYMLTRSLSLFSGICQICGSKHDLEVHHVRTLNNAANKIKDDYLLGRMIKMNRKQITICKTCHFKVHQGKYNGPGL

[2] = molecular target: T2, aI2-encoded protein (wild-type, 62 kDa), aI2 RNP particle (Saccharomyces cerevisiae) (UniProt P03876); experiment: cleavage_in_vitro; details: 20 mM Mg
T2 sequence: T1 sequence with T714P

Substance: excised aI2 RNA, strain-specific mutated ; pE2E3-derived substrate, E2-E3 target
- relative cleavage activity ([1]; antisense strand): 6%
- relative cleavage activity ([1]; sense strand): 25%

Substance: excised aI2 intron RNA ; pE2E3 142 nt RNA substrate
- binding signal (relative rate) [2]: 1
